Laboratory results from US11155602B2, “Polypeptides targeting HIV fusion” (priority 2015, dated 2021).
Numbering of substitutions follows the chain as printed.

B1: 123 (protein)
chain: MGVSDVPRDLEVVAATPTSLLISWEYKVHPYRYYRITYGETGGNSPVQEFTVPSVLSTATISGLKPGVDYTITVYAVTRGVDSAPISINYRTEIDKPSQHHHHHH
modifications: Adnectin
B2: 124 (protein)
chain: B1 chain with T60E, E93P
modifications: Adnectin
B3: 120 (protein)
chain: MGHHHHHHGGVSDVPRDLEVVAATPTSLLISWEYNVNPYRYYRITYGETGGNSPVQEFTVPSVLSSAQISGLKPGVDYTITVYAVTRGVDSAPISINYRTPGG
modifications: Adnectin
B4: 122 (protein)
chain: B3 chain with E33Q, N35K, N37H, S66T, Q68E
modifications: Adnectin
B5: 121 (protein)
chain: B3 chain with S66T, Q68E, R87Y, A92D
modifications: Adnectin
B6: 181 (protein)
chain: MGHHHHHHGGSVSDVPRDLEVVAATPTSLLISWEYKVHPYRYYRITYGETGGNSPVQEFTVPSVLSTATISGLKPGVDYTITVYAVTYGDHSAPISINYRTEID
modifications: Adnectin
B7: 218 (protein)
chain: B6 chain with S71R, H91D
modifications: Adnectin
B8: 208 (protein)
chain: B6 chain with H91D, A93T
modifications: Adnectin
B9: 222 (protein)
chain: B6 chain with H38D, P39H, Y40Q, H91D
modifications: Adnectin
B10: 187 (protein)
chain: B6 chain with T60K, H91D
modifications: Adnectin
B11: 192 (protein)
chain: B6 chain with D90T, H91D
modifications: Adnectin
B12: 221 (protein)
chain: B6 chain with H38Y, P39G, H91D
modifications: Adnectin
B13: 194 (protein)
chain: B6 chain with H91P
modifications: Adnectin
B14: 215 (protein)
chain: B6 chain with E34K, K36D, H91D
modifications: Adnectin
B15: 183 (protein)
chain: B6 chain with D90I, H91D
modifications: Adnectin
B16: 201 (protein)
chain: B6 chain with H91Q
modifications: Adnectin
B17: 206 (protein)
chain: B6 chain with H91D, A93K
modifications: Adnectin
B18: 220 (protein)
chain: B6 chain with G9C, H38A, P39H, Y40N, H91D
modifications: Adnectin
B19: 200 (protein)
chain: B6 chain with G48T, H91D
modifications: Adnectin
B20: 197 (protein)
chain: B6 chain with H91D, A93G
modifications: Adnectin
B21: 203 (protein)
chain: B6 chain with H91D, A93G
modifications: Adnectin
B22: 198 (protein)
chain: B6 chain with H91D, N98Q
modifications: Adnectin
B23: 191 (protein)
chain: B6 chain with D90T, H91D
modifications: Adnectin
B24: 213 (protein)
chain: B6 chain with H91D, A93W
modifications: Adnectin
B25: 214 (protein)
chain: B6 chain with Y88H, H91D
modifications: Adnectin
B26: 188 (protein)
chain: B6 chain with H91L
modifications: Adnectin
B27: 211 (protein)
chain: B6 chain with Y88R, H91D
modifications: Adnectin
B28: 196 (protein)
chain: B6 chain with H91V
modifications: Adnectin
B29: 219 (protein)
chain: B6 chain with E34K, H91D
modifications: Adnectin
B30: 182 (protein)
chain: B6 chain with H91Q
modifications: Adnectin
B31: 212 (protein)
chain: B6 chain with Y88H, H91D
modifications: Adnectin
B32: 193 (protein)
chain: B6 chain with D90K, H91D
modifications: Adnectin
B33: 184 (protein)
chain: B6 chain with H91V
modifications: Adnectin
B34: 205 (protein)
chain: B6 chain with K36D, H91D
modifications: Adnectin
B35: 189 (protein)
chain: B6 chain with D90K, H91D
modifications: Adnectin
B36: 186 (protein)
chain: B6 chain with D90E, H91D
modifications: Adnectin
B37: 199 (protein)
chain: B6 chain with H91D, A93Q
modifications: Adnectin
B38: 217 (protein)
chain: B6 chain with Y88R, H91D
modifications: Adnectin
B39: 216 (protein)
chain: B6 chain with G72D, H91D, A93H
modifications: Adnectin
B40: 209 (protein)
chain: B6 chain with H91D, A93T
modifications: Adnectin
B41: 190 (protein)
chain: B6 chain with D90A, H91D
modifications: Adnectin
B42: 210 (protein)
chain: B6 chain with H91D, A93S
modifications: Adnectin
B43: 202 (protein)
chain: B6 chain with H91D, A93K
modifications: Adnectin
B44: 195 (protein)
chain: B6 chain with H91D, A93Q
modifications: Adnectin
B45: 207 (protein)
chain: B6 chain with G48W, H91D
modifications: Adnectin

What follows are molecules tested on NL-Rluc virus (assay: Combinectin potency assay: antiviral EC50, NL-Rluc virus in MT-2 cells, luciferase readout). Conditions: Anti-N17 Adnectin, Table 3.
Type: cell-based, HIV-1
Experimental: MT-2 cells, HEK 293T cells and the proviral DNA clone of […] were obtained from the NIH AIDS Research and Reference Reagent Program. MT-2 cells were propagated in RPMI 1640 medium supplemented with 10% heat-inactivated fetal bovine serum (FBS), 10 mM HEPES buffer pH 7.55, and 2 mM L-glutamine. HEK 293T cells were propagated in DMEM media supplemented with 10% heat-inactivated FBS, 10 mM HEPES buffer pH 7.55 and 2 mM L-glutamine. Recombinant NL-Rluc virus, in which a section of the nef gene from the proviral clone of NL4-3 was replaced with the Renilla luciferase gene, was constructed at Bristol-Myers Squibb. The replication-competent virus was harvested 3 days after transfection of HEK 293T cells with the modified pNL-Rluc proviral clone. Transfections were performed using Lipofectamine Plus (Invitrogen, Carlsbad, Calif.), according to manufacturer's instruction. Virus was titered in MT-2 cells using luciferase enzyme activity as a biomarker. The NL-Rluc virus used to infect MT-2 cells a multiplicity of 0.01 for 1 hour before adding to the peptides in 96-well plates. Peptides were serially diluted three-fold and 11 concentrations were plated in triplicate. After 4-5 days of incubation, cells were processed and quantitated for virus growth by the amount of expressed luciferase. Luciferase was quantitated using the Dual Luciferase kit from Promega (Madison, Wis.), with modifications to the manufacturer's protocol. The diluted Passive Lysis solution was pre-mixed with the re-suspended Luciferase Assay Reagent and then re-suspended in STOP & GLO® Substrate (2:1:1 ratio). A total of […] of the mixture was added to each aspirated well on assay plates and luciferase activity was measured immediately on a Wallac TriLux (Perkin-Elmer, Waltham, Mass.). The 50% effective concentration (EC50) was calculated by comparing the amount of luciferase produced in the presence of inhibitory peptide compared to wells where no peptide was added.

**Q.** B1 was tested. Which EC50 did it give?
**A.** 28 nM

**Q.** B2 was tested. Which EC50 did it give?
**A.** 6 nM

**Q.** B3 was tested. Which EC50 did it give?
**A.** 39 nM

**Q.** For B4, which EC50 is on record?
**A.** 6 nM

**Q.** For B5, which EC50 is on record?
**A.** 57 nM

**Q.** B6 was tested. Which EC50 did it give?
**A.** 631 nM

**Q.** How did the EC50 turn out when B7 was run?
**A.** 62 nM

**Q.** Which EC50 does the source give for B8 here?
**A.** > 1000 nM

**Q.** Which EC50 does the source give for B9 here?
**A.** > 1000 nM

**Q.** Which EC50 does the source give for B10 here?
**A.** 86 nM

**Q.** How did the EC50 turn out when B11 was run?
**A.** 2830 nM

**Q.** For B12, which EC50 is on record?
**A.** > 1000 nM

**Q.** Which EC50 does the source give for B13 here?
**A.** > 1000 nM

**Q.** How did the EC50 turn out when B14 was run?
**A.** > 1000 nM

**Q.** For B15, which EC50 is on record?
**A.** 20 nM

**Q.** For B16, which EC50 is on record?
**A.** 20 nM

**Q.** Which EC50 does the source give for B17 here?
**A.** 237 nM

**Q.** For B18, which EC50 is on record?
**A.** 86 nM

**Q.** How did the EC50 turn out when B19 was run?
**A.** > 1000 nM

**Q.** How did the EC50 turn out when B20 was run?
**A.** 81 nM

**Q.** With B21 as the molecule, how does the EC50 read?
**A.** 86 nM

**Q.** With B22 as the molecule, how does the EC50 read?
**A.** 2830 nM

**Q.** With B23 as the molecule, how does the EC50 read?
**A.** > 1000 nM

**Q.** How did the EC50 turn out when B24 was run?
**A.** > 1000 nM

**Q.** With B25 as the molecule, how does the EC50 read?
**A.** > 1000 nM

**Q.** B26 was tested. Which EC50 did it give?
**A.** 86 nM

**Q.** With B27 as the molecule, how does the EC50 read?
**A.** 631 nM

**Q.** For B28, which EC50 is on record?
**A.** 86 nM

**Q.** For B29, which EC50 is on record?
**A.** > 1000 nM

**Q.** For B30, which EC50 is on record?
**A.** > 1000 nM

**Q.** Which EC50 does the source give for B31 here?
**A.** 86 nM

**Q.** Which EC50 does the source give for B32 here?
**A.** 252 nM

**Q.** With B33 as the molecule, how does the EC50 read?
**A.** 20 nM

**Q.** Which EC50 does the source give for B34 here?
**A.** 86 nM

**Q.** B35 was tested. Which EC50 did it give?
**A.** > 1000 nM

**Q.** For B36, which EC50 is on record?
**A.** 2830 nM

**Q.** B37 was tested. Which EC50 did it give?
**A.** > 1000 nM

**Q.** Which EC50 does the source give for B38 here?
**A.** > 1000 nM

**Q.** B39 was tested. Which EC50 did it give?
**A.** > 1000 nM

**Q.** Which EC50 does the source give for B40 here?
**A.** 20 nM

**Q.** With B41 as the molecule, how does the EC50 read?
**A.** > 1000 nM

**Q.** How did the EC50 turn out when B42 was run?
**A.** 143 nM

**Q.** B43 was tested. Which EC50 did it give?
**A.** > 1000 nM

**Q.** Which EC50 does the source give for B44 here?
**A.** > 1000 nM

**Q.** With B45 as the molecule, how does the EC50 read?
**A.** > 1000 nM
